Several values for one entry are separate records, joined by “and”; a condition that tells them apart may be missing. Identical values can stand only once.

Assay [1] has as its target Nucleosome core particle NCP-601 (Xenopus laevis). The experiment in a line: native gel or EMSA; near physiological ionic strength: 1X TBE (89 mM Tris-HCl, 89 mM boric acid, 1.0 mM EDTA, pH 8.3); preassembled NCP or array incubated with HMGN about 30 min at room temperature, electrophoresis at 4°C; 0.5 μM nucleosome core sites. Background: A gel shift assay detects complexes by their altered migration in electrophoresis.

Assay [2] concerns the target Nucleosome core particle NCP147 (Xenopus laevis). The description is as above.
Assay [3] addresses Centered nucleosome core particle NCP146b (Xenopus laevis). The experiment in a line: native gel or EMSA; low ionic strength: 0.25X TBE (0.25X TAE for 12-array); preassembled NCP or array incubated with HMGN or NBD peptide about 30 min at room temperature, electrophoresis at 4°C; 0.5 μM nucleosome core sites; NCP on 6% polyacrylamide, array on 1% agarose/1.3% polyacrylamide.
Assay [4] addresses Nucleosome core particle NCP-601 (Xenopus laevis). Described as above.
The target of assay [5] is Nucleosome core particle NCP147 (Xenopus laevis). The assay is described as above.

Regarding Xenopus laevis HMGN2 (natural protein), the stoichiometry N (HMGN : nucleosome core particle) in assay [1] and in assay [2] was 2 in each case. For the same substance, the stoichiometry N (HMGN : nucleosome) is 1 and 2 in assay [3]; 2 and 1 in assay [4]; 1 and 2 in assay [5].

Take Xenopus laevis HMGN1 (natural protein): the stoichiometry N (HMGN : nucleosome core particle) in assay [1] and in assay [2] was 2 each time. The stoichiometry N (HMGN : nucleosome) in assay [3] was 1 and 2; in assay [4], 1 and 2; in assay [5], 1 and 2.

These data come from PMC3005839.
